Data: publication PMC7046344

T1: Spn-F-FLAG, Q9V9Y9
T1 chain: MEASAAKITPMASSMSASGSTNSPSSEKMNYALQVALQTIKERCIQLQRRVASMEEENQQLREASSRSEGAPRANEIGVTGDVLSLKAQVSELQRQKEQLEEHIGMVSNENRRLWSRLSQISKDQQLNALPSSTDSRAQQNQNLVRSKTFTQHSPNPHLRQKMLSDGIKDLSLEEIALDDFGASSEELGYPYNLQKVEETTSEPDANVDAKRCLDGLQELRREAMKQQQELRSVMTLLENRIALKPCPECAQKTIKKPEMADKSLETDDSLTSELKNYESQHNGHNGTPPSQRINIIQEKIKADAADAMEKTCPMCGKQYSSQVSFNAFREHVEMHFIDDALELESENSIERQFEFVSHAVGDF


Legend:
[1] = target: Spn-F-FLAG (UniProt Q9V9Y9); assay: co-immunoprecipitation (IP anti-FLAG, IB myc, band ratio by ImageJ); details: lysates of S2 cells co-expressing SpnF-FLAG and myc-Rab11; parent: 1
[2] = target: T1, Spn-F-FLAG, Q9V9Y9; assay: as above; details: chain shown with the change; lysates of S2 cells co-expressing SpnF-FLAG and myc-Rab11; parent: 1

Molecule	other: myc/FLAG ratio [1]	other: myc/FLAG ratio [2]
myc-Rab11 (from UniProt O18335) CA	0.14	
myc-Rab11, O18335 S25N (protein) MGAREDEYDYLFKVVLIGDSGVGKNNLLSRFTRNEFNLESKSTIGVEFATRSIEVDGKTIKAQIWDTAGQERYRAITSAYYRGAVGALLVYDIAKHLTYENVERWLRELRDHADQNIVIMLVGNKSDLRHLRSVPTDEAKLFAERNGLSFIETSALDSTNVETAFQNILTEIYRIVSQKQIRDPPEGDVIRPSNVEPIDVKPTVTADVRKQCCQ		1.07
